Results as given in patent US7205387B2, “Recombinant polypeptide useful for neurotrophin receptor mediated gene delivery and as neurotrophin agonist” (Agency for Science, Technology and Research, priority 2003, dated 2007).
Bridge positions count the residues as written; N and C are the ends. Ends that are not written are not given here.

Columns and labels:
primary cortical neurons = experiment: Gene delivery to primary cultures of cortical neurons; format: cell-based, rat
Method: Primary cultures of neurons were established from the cortices of embryonic Wistar rats at gestational day 20. Cortices freed of meninges were dissected and individual cells were dispersed mechanically by trituration of minced tissue in 3 ml DMEM medium supplemented with 2% FBS. The suspension was allowed to settle in a centrifuge tube. The cells in the supernatant were collected by centrifugation and resuspended gently in DMEM with 10% FBS. Viability of the cells was assessed prior to plating using trypan blue. Cells were plated onto microplates pre-coated with poly-L-lysine/laminin at a density of 7.5×10^5 viable cells/cm^2. After a two-hour incubation period to allow neurons to attach, the medium and unattached cells were removed and replaced by serum-free DMEM/F12 medium with 1% N2 supplement (Invitrogen, Carlsbad, Calif., USA). The cell were then incubated at 37° C. in 5% CO2 in a humidified incubator. After 2–5 days of culture, the neuron cells were used for transfection experiments. Gene delivery complexes were also tested on primary cultures of cortical neurons and glial cells in a similar fashion. […] Four hours later, an equal volume of DMEM-F12/N2 was added. One to two days after transfection, the cell culture medium was removed and the cells were rinsed in phosphate-buffered saline (PBS). Enough Reporter Lysis Buffer (Promega, Wisconsin, Md., USA) to cover the bottom surface was added to each well (50 μl/well for 48-well plates). After one freeze-thaw cycle, the lysates were tested for luciferase activity using the Luciferase Assay System (Promega) and a single-tube luminometer (Berthold Lumat L B 9507, Bad Wildbad, Germany). The total protein concentration of each lysate was determined using the DC Protein assay (Bio-Rad, Hercules, Calif., USA). The results were expressed in relative light units (RLU) per milligram of total protein.

[1] = system: dorsal root ganglia (DRG); experiment: Gene delivery in vivo, intrathecal injection, dorsal root ganglia; set-up: species or system rat; details: 3 days
Excerpt: In vivo gene delivery was studied by intrathecal injections of adult Wistar rats (8 weeks old, 180–200 g). The rats were anesthetized by intraperitoneal injection of sodium pentobarbital. After the skin around L4–L5 was exposed, the gene delivery complex was slowly injected into the subarachnoid space using a syringe. A slight tail movement accompanied correct placement of the needle. After injection, the syringe was left in place for five minutes to limit diffusion caused by backflow pressure. Multiple injections were sometimes required to deliver the full volume of the complex. After injection, the skin was closed with surgical clips and the animals were kept warm until they recovered. […] The lumbar segment of the spinal cord and the lumbar dorsal root ganglia were excised. The tissues were homogenized in 100–400 μl of Reporter Lysis Buffer (Promega) depending on size and subjected to three freeze-thaw cycles. The lysates were centrifuged at 14000 g for 5 min at 4° C. The supernatant was tested for luciferase activity using the Luciferase Assay System (Promega) in a single-tube luminometer (Berthold Lumat LB 9507). The readings were normalized by the total protein content of the lysates, as measured by the DC Protein assay (Bio-Rad).

primary glial cells = experiment: Gene delivery to primary cultures of glial cells; format: cell-based, rat
Method: Primary cultures of glial cells were established from the cortices of 20-day old embryonic Wistar rats. Individual cells were collected as described above. The cells were plated at a density of 4×10^5 viable cells/cm^2 on poly-L-lysine/laminin coated dishes and grown to confluence for 7 days in DMEM/F12 medium supplemented with 10% FCS. The day before transfection, the cells were detached and plated into coated microplates at a density of 2.5×10^4 cells per well. Gene delivery complexes were also tested on primary cultures of cortical neurons and glial cells in a similar fashion. […] Four hours later, an equal volume of DMEM-F12/N2 was added. One to two days after transfection, the cell culture medium was removed and the cells were rinsed in phosphate-buffered saline (PBS). Enough Reporter Lysis Buffer (Promega, Wisconsin, Md., USA) to cover the bottom surface was added to each well (50 μl/well for 48-well plates). After one freeze-thaw cycle, the lysates were tested for luciferase activity using the Luciferase Assay System (Promega) and a single-tube luminometer (Berthold Lumat L B 9507, Bad Wildbad, Germany). The total protein concentration of each lysate was determined using the DC Protein assay (Bio-Rad, Hercules, Calif., USA). The results were expressed in relative light units (RLU) per milligram of total protein.

TrkA = biological target: T1, TrkA (Rattus norvegicus, UniProt P35739); experiment: Phospho-TrkA immunoblot in PC12 cells; format: cell-based
T1 construct: endogenous in cells; host or cells: PC12 (rat pheochromocytoma, ATCC)
Method: (§1) Immunoblotting experiments were conducted to test whether the chimeric polypeptides could, like NGF, induce autophosphorylation of TrkA and activation of its signal transduction pathways. PC12 cells were seeded in 6-well plates at a density of 2×10^6 cells/well and cultured in RPMI 1640 containing 0.5% FBS and 0.25% horse serum for 2 days. The low serum concentrations were necessary to reduce the basal levels of phosphorylation. The medium was refreshed two hours before beginning treatment. The cells were incubated with the polypeptides or NGF in serum-free medium for 15–20 min. The cells were then washed in PBS, lysed, and sonicated. The cell lysates were resolved by SDS-PAGE and transferred to a nitrocellulose membrane for immunoblotting. The primary antibodies used include Phospho-TrkA (Tyr490) antibody, Phospho-p44/p42 MAPK (Thr202/Tyr204) monoclonal antibody, and Phospho-Akt (Ser473) monoclonal antibody, all obtained from Cell Signaling Technology (Beverly, Mass., USA). Colorimetric detection was performed by standard techniques after using horse-radish peroxidase-conjugated secondary antibodies. In some experiments, TrkA tyrosine kinase inhibitors K-252a or AG879 (both from Calbiochem, La Jolla, Calif., USA) were used. In these cases, PC12 cells were incubated with 100 nM K-252a or 10 μM AG879 before addition of polypeptides or NGF.

Erk1 and Erk2 = experiment: Phospho-Erk1/Erk2 (p44/p42 MAPK) immunoblot in PC12 cells; format: cell-based, rat
Method: as §1

[2] = peptide/DNA 0.75 nmol/μg (N/P ratio of 2.5), chloroquine
[3] = 0.25 μg/well pCAGluc, PEI600, 24 h

T1 sequence (P35739 33-799): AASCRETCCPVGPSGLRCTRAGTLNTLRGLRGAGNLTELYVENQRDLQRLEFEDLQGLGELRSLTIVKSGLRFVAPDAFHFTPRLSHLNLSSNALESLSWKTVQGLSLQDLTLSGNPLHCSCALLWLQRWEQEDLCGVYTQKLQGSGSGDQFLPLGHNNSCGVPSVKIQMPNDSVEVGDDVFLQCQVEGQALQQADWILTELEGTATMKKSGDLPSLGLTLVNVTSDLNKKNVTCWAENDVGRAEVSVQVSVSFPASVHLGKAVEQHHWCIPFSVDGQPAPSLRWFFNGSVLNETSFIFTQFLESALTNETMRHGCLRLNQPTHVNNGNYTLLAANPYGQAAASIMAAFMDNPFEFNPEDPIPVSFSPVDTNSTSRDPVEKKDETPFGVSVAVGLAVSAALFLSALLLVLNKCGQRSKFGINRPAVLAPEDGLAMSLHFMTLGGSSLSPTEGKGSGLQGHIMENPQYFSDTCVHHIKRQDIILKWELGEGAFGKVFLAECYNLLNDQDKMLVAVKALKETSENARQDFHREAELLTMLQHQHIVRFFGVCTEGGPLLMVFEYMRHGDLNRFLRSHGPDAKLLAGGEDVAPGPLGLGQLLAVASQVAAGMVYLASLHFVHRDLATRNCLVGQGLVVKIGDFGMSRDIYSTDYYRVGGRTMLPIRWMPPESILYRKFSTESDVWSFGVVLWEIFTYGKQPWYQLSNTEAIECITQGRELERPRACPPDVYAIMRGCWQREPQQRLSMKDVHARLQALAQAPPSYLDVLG

Molecule | gene transfer efficiency relative to the non-targeted control (10K) (primary cortical neurons; [2]) [fold] | luciferase gene expression in DRG relative to PEI600/pCAGluc/10K ([1]; 3 μg pCAGluc, PEI600 N/P 5, peptide N/P 5, intralumbar) | difference between transfection efficiencies of NL4-10K and 10K (primary glial cells; [2]) | activation (phosphorylation) of TrkA (TrkA; 5 μM peptide, 20 min) | activity when complexed with DNA (TrkA; NL4-10K/DNA complexes (N/P ratio of 5)) | activation (phosphorylation) of Erk 1 and Erk 2 (Erk1 and Erk2; 5 μM peptide, 20 min) | effectiveness of triple complexes relative to (SPKR)4 triple complexes (primary cortical neurons; [3]) | transgene expression in lumbar DRG relative to PEI600/pCAGluc control ([1]; 4 μg pCAGluc, PEI600 N/P 5, 32 nmol peptide, intrathecal) | difference between SPKR4NL1-2 and (SPKR)4 triple complexes (primary glial cells; [3]) | activation of TrkA (phospho-TrkA Western blot) (TrkA; 8 μM, 20 min) | Erk1 and Erk2 activation compared with (SPKR)4 control (Erk1 and Erk2; 1–8 μM, 15 min)
CTTTHTFVKALTMDGKQAAWRFIRIDTACKKKKKKKKKK (CTTTHTFVKALTMDGKQAAWRFIRIDTACKKKKKKKKKK; disulfide 1-29) [NL4-10K] | 22 | twice as high | not significant | induced activation | retained its activity | induced activation |  |  |  |  | 
SPKR4NL1-2: chimeric protein: (SPKR)4 DNA-binding domain, α-helical linker, targeting domain with loops 1 and 2 of NGF (aa 17–67), His10 tag (protein, SPKR4NL1-2) MGHHHHHHHHHHSSGHIEGRHMSPKRSPKRSPKRSPKRGGTYLSEDELKAAEAAFKRHNPTGSCSVSVWVGDKTTATDIKGKEVMVLGEVNINNSVFKQYFFETKCRDPNPVDSG |  |  |  |  |  |  | nine times | nine times | essentially no difference | activates TrkA | higher level of Erk1 and Erk2 activation
